These results are taken from patent US8227408B2, “Leptin as an anti-amyloidogenic biologic and methods for delaying the onset and reducing Alzheimer's disease-like pathology” (Neurotez, Inc., priority 2005, dated 2012).

The assay has as its system BACE. The experiment in a line: BACE activity, APP and flotillin in sucrose gradient fractions of treated SY5Y cells (fluorescence quenching assay). In kind it is cell-based, human. As for the experimental part: In panel (a), Neuro2a cells stably transfected with hyg-sa134 were treated for about 2 h or about 5 h with about 100 ng/ml leptin, Ob (black); about 125 mg/ml cyclodextrin, CDX (striped gray); about 5 mg/ml cholesterol, Ch (pale gray); and leptin plus cholesterol, Ob+Ch (medium gray). Media were collected and assayed for total Aβ by ELISAs (Figueiredo-Pereira et al., J Neurochem. 72:1417-22 (1999)). […] Water soluble cholesterol (Sigma-Aldrich, Mo.) is a solution made of cholesterol balanced with CDX (40 mg cholesterol per gr CDX). […] Extracts prepared from harvested cells were analysed by SDS-PAGE and Western blotting using an antibody directed against the C-terminal fraction of APP (C-APP, lanes 1-4) or actin (top lanes 5-8) or full-length APP (bottom lanes 5-8). […] Fractions collected from the bottom of the gradient were analysed by SDS-PAGE and Western blotting for the detection of APP and flotillin (marker for lipid rafts). […] In panel (e), fractions collected as above were assayed for β-secretase activity using a fluorescence-quenching assay (QTL Biosystems, NM). The results are expressed as the percent distribution of BACE activity within the gradient derived from cell cultures in the absence (black) or presence (gray) of leptin in the medium. […]

B1: Leptin: peptide hormone controlling adaptive metabolic mechanisms to energy availability; leptin (Harbor-UCLA) in vitro, recombinant murine leptin in mice (protein, UniProt P41160 22-167, looked up)
Leptin: VPIQKVQDDTKTLIKTIVTRINDISHTQSVSAKQRVTGLDFIPGLHPILSLSKMDQTLAVYQQVLTSLPSQNVLQIANDLENLRDLLHLLAFSKSCSLPQTSGLQKPESLDGVLEASLYSTEVVALSRLQGSLQDILQQLDVSPEC
For B1, the “activity of BACE in the low density fractions” value (about 400 ng/ml leptin, about 5 h, sucrose gradient fractions) is on record as “almost absent”. The “flotillin migration / elution position on sucrose gradient” value (compared to controls) is “migrated at heavier subcellular fractions”.
